Reference: PMC2629542

Biological target: DraE R86G (E. coli)
Assay: SPR

Substance: N-domain of CEA (domain or fragment)
- fold decrease in affinity against DraE: > 7 fold
